According to paper PMC9569552 (International Journal of Molecular Sciences, 2022):

Target: T1, antigen c-MET (Homo sapiens (assumed), UniProt P08581)
T1 construct: c-MET used as antigen in the ForteBio Octet experiment; the construct of the antigen is unknown; also called mesenchymal-epithelial transition protein
Assay: BLI; ForteBio Octet; who was immobilised and the conditions not given; KD from ForteBio Data Analysis Software 8.0; values compared 'if normalized to the same number of epitope of c-MET'

T1 sequence (P08581 25-1390): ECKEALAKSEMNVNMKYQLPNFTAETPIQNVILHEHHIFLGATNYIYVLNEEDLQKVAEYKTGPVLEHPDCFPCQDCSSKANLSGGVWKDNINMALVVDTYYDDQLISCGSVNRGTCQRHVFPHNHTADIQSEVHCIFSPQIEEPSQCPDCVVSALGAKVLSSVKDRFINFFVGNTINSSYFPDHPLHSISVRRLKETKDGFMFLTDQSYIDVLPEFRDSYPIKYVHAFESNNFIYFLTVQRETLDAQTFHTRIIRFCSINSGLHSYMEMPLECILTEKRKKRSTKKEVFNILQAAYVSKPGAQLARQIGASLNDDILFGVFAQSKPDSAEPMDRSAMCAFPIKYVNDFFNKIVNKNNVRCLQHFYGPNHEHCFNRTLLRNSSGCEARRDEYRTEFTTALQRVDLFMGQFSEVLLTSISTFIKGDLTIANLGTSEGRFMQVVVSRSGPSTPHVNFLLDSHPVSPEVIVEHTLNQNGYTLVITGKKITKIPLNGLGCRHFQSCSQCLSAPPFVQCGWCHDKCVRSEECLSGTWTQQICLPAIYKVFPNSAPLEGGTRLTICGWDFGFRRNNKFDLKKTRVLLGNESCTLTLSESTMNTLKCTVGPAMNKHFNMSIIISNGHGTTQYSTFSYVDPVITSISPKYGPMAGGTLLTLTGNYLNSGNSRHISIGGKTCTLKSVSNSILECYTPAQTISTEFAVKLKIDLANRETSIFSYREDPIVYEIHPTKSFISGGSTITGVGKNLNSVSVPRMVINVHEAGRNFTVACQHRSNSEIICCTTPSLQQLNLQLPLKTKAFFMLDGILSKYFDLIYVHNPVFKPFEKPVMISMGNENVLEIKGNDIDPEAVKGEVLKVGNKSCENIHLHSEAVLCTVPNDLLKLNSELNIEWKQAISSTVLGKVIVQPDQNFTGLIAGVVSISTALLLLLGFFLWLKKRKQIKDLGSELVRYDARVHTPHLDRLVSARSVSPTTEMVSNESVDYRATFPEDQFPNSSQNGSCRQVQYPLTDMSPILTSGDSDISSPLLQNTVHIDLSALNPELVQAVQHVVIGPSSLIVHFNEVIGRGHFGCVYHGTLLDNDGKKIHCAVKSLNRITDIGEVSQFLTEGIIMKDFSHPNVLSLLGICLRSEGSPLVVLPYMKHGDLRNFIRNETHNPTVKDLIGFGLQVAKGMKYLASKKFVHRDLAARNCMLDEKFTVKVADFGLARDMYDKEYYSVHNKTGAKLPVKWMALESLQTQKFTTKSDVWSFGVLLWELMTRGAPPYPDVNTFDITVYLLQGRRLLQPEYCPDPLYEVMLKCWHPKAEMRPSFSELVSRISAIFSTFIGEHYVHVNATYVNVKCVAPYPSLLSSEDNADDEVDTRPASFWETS

- Kd: 650 pM
B1: Emibetuzumab-IgG4 (Emi-IgG4) antibody (antibody, V domains shown)
VH: QVQLVQSGAEVKKPGASVKVSCKASGYTFTDYYMHWVRQAPGQGLEWMGRVNPNRRGTTYNQKFEGRVTMTTDTSTSTAYMELRSLRSDDTAVYYCARANWLDYWGQGTTVTVSS
VL: DIQMTQSPSSLSASVGDRVTITCSVSSSVSSIYLHWYQQKPGKAPKLLIYSTSNLASGVPSRFSGSGSGTDFTLTISSLQPEDFATYYCQVYSGYPLTFGGGTKVEIK
notes: heavy chain of emibetuzumab, IgG4; disclosed in WO 2010/059654; kappa light chain of emibetuzumab; IgG4; also called emibetuzumab analog; source: 293F cells, transiently co-transfected, purified from the supernatant (Protein A); copies: 2 + 2
